This note sets out measurements from the supplement of paper PMC9732359.

The nature of the series: protein stability index of a GFP-peptide fusion (yeast GPS) (PSI 1-4); higher = more stable; sorted into four equal gates, so the index is relative within each strain. The method in brief:
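Tiled yeast protein peptides of 17 residues were each joined downstream of GFP, on plasmids that also express Cherry. The pooled library was maintained in yeast, and mid-log cultures in leucine-free medium were sorted into four equal gates on the GFP/Cherry ratio. Plasmids from every gate were amplified by PCR and sequenced on Illumina, with barcodes linking reads to strains. The protein stability index of a peptide is its gate-number-weighted read frequency summed over the gates.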

± gives the uncertainty stated by the source.

For EFRSAAGQLALDLANSG [YDL116W/NUP84], the protein stability index is, setting by setting: (doa10∆) 2.79 ± 0.14; (san1∆) 2.82 ± 0.14; (ubr1∆) 3 ± 0.12.

In turn, PNHIPSVNPSNKPIKRM [SWP82] came in with a protein stability index (doa10∆) of 2.87 ± 0.087, a protein stability index (pdr5∆) of 2.96 ± 0.057, a protein stability index (san1∆) of 2.75 ± 0.081 and a protein stability index (ubr1∆) of 3.02 ± 0.042.

On to VILGADSRTTTGAYIAN [PRE3], for which the protein stability index came to 2.72 ± 0.13 (doa10∆), 3.41 ± 0.11 (pdr5∆), 3.12 ± 0.16 (san1∆) and 2.81 ± 0.13 (ubr1∆).

In the case of TKEELESDGRMFIEEPT [SRP54], the protein stability index by setting is: (doa10∆) 2.58 ± 0.091; (pdr5∆) 3.11 ± 0.14; (san1∆) 2.96 ± 0.099; (ubr1∆) 2.71 ± 0.055.

NKNQLLKRNRIRNARSI [POP1]: the protein stability index is, setting by setting: (doa10∆) 2.93 ± 0.071; (pdr5∆) 3.1 ± 0.071; (san1∆) 2.84 ± 0.059; (ubr1∆) 3 ± 0.055.

KTAPIQESFVPNSERSG [YOR098C/NUP1]: the protein stability index was 2.27 ± 0.24 (doa10∆), 2.42 ± 0.11 (pdr5∆), 1.4 ± 0.26 (san1∆) and 3.03 ± 0.081 (ubr1∆).

Consider FLTVSKLWAEIIVKILY [GRR1], for which the protein stability index by setting is: (doa10∆) 1.55 ± 0.046; (pdr5∆) 1.97 ± 0.058; (san1∆) 1.53 ± 0.087; (ubr1∆) 1.37 ± 0.048.

AQNQGMFGAKPAGTSLF [YGL172W/NUP49]: the protein stability index reads like this: (doa10∆) 2.32 ± 0.054; (pdr5∆) 2.36 ± 0.064; (san1∆) 2.34 ± 0.075; (ubr1∆) 2.37 ± 0.04.

FEGVTHRWGTKKLPRKT [RPL3]: the protein stability index stood at 3.31 ± 0.11 (doa10∆), 2.98 ± 0.13 (pdr5∆), 3.11 ± 0.082 (san1∆) and 3.34 ± 0.061 (ubr1∆).

With SGITDPYEMYKYVHVSE [FAS2], the protein stability index reads like this: (doa10∆) 2.33 ± 0.072; (pdr5∆) 2.63 ± 0.074; (san1∆) 2.48 ± 0.07; (ubr1∆) 2.4 ± 0.069.

On to SAAGNKAIPTFSFGKPF [YIL149C/MLP2], for which the protein stability index amounted to 2.73 ± 0.046 (doa10∆), 2.86 ± 0.055 (pdr5∆), 2.96 ± 0.045 (san1∆) and 2.96 ± 0.034 (ubr1∆).

For SLHRQQQQQQQQVPPLP [DLS1], the protein stability index is, setting by setting: (doa10∆) 2.78 ± 0.056; (pdr5∆) 2.81 ± 0.06; (san1∆) 2.63 ± 0.046; (ubr1∆) 2.94 ± 0.061.

Take DKPYLLRIVTHLAICLD [YDL116W/NUP84]: the protein stability index runs as follows: (doa10∆) 1.33 ± 0.078; (pdr5∆) 1.28 ± 0.08; (san1∆) 1.32 ± 0.13; (ubr1∆) 1.58 ± 0.058.

Consider DVDQHGNDNNSDSNANA [SWI3], for which the protein stability index was found to be 3.01 ± 0.045 (doa10∆), 3.25 ± 0.046 (pdr5∆), 3.245 ± 0.028 (san1∆) and 3.249 ± 0.028 (ubr1∆).

With RNVTKGDIVRMLETAGF [SMC3], the protein stability index reads like this: (doa10∆) 2.81 ± 0.099; (pdr5∆) 3.07 ± 0.12; (san1∆) 2.76 ± 0.1; (ubr1∆) 3.19 ± 0.07.

For LMKKACYVGLLTAIPIL [SNU114], the protein stability index is, setting by setting: (doa10∆) 1.55 ± 0.035; (pdr5∆) 1.45 ± 0.036; (san1∆) 1.53 ± 0.054; (ubr1∆) 1.66 ± 0.032.

Regarding KQDEKKSSELELQKLVH [SMC2], the protein stability index was 3.23 ± 0.13 (doa10∆), 3.5 ± 0.097 (pdr5∆), 3.4 ± 0.071 (san1∆) and 3.35 ± 0.051 (ubr1∆).

For LLVKFIKFFWNNTHVGR [YLR018C/POM34], the protein stability index is 2.97 ± 0.22 (doa10∆), 2.48 ± 0.085 (pdr5∆), 2.51 ± 0.085 (san1∆) and 2.66 ± 0.095 (ubr1∆).

For RPDIVHTVFTSVNKNKR [RPL4A], the protein stability index reads like this: (doa10∆) 1.26 ± 0.088; (pdr5∆) 1.46 ± 0.11; (san1∆) 1.24 ± 0.17; (ubr1∆) 1.4 ± 0.12.

As for KVKKPLKYLSVEEVIKL [PRE7], the protein stability index reads like this: (doa10∆) 2.54 ± 0.084; (pdr5∆) 2.63 ± 0.054; (san1∆) 2.75 ± 0.083; (ubr1∆) 2.23 ± 0.067.

In turn, KQREIVKAFLSIFEDAI [NUT1] registered a protein stability index (doa10∆) of 1.92 ± 0.081, a protein stability index (pdr5∆) of 1.65 ± 0.071, a protein stability index (san1∆) of 2.38 ± 0.19 and a protein stability index (ubr1∆) of 1.76 ± 0.1.

The sequence AYGNWFNGLKPLIQNSM [PRP8] showed a protein stability index (doa10∆) of 2.94 ± 0.063, a protein stability index (pdr5∆) of 3.31 ± 0.099, a protein stability index (san1∆) of 2.85 ± 0.11 and a protein stability index (ubr1∆) of 3.13 ± 0.049.

Take SRCHLVTKDTKKYSSKN [SRP68]: the protein stability index is, setting by setting: (doa10∆) 3.04 ± 0.092; (pdr5∆) 2.8 ± 0.1; (san1∆) 2.65 ± 0.11; (ubr1∆) 3.12 ± 0.072.

Turning to KKRSKVRKETYSSYIYK [HTB2], the protein stability index by setting is: (doa10∆) 3.15 ± 0.074; (pdr5∆) 3.33 ± 0.066; (san1∆) 3.14 ± 0.071; (ubr1∆) 3.38 ± 0.052.
